Patent US20250076311A1 (Chugai, published 2025)

T1: cynomolgus monkey FcγRIIb extracellular domain with C-terminal His-tag (cynomolgus monkey)
T1 construct: also called cyno FcgRIIb; cynoFcγRIIb; not shown: His-tag added to the C-terminus
T1 chain: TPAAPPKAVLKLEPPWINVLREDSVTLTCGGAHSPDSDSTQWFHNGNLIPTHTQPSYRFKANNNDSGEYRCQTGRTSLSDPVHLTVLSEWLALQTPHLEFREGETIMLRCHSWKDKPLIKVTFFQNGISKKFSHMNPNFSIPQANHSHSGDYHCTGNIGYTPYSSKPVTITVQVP

T2: cynomolgus monkey FcγRIIa3 extracellular domain with C-terminal His-tag (cynomolgus monkey)
T2 construct: also called cyno FcgRIIa3; cynoFcγRIIa3; not shown: His-tag added to the C-terminus
T2 chain: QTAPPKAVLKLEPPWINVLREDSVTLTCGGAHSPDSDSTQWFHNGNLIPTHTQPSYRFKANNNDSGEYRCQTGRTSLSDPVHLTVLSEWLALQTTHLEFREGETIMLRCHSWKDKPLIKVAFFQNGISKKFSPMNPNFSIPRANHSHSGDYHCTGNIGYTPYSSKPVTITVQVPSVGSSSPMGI

T3: human FcγRIIaH extracellular domain with C-terminal His-tag (human, UniProt P12318 34-217)
T3 construct: also called human FcgRIIaH; FcγRIIa type H; not shown: His-tag added to the C-terminus
T3 sequence: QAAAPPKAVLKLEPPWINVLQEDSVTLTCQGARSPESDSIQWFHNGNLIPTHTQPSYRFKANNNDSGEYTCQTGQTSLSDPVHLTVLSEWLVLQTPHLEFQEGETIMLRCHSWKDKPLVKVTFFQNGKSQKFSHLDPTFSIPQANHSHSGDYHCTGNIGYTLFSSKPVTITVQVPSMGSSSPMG


Experiments:
[1] = biological target: T1, cynomolgus monkey FcγRIIb extracellular …; assay: SPR (BIACORE); KD of SG1 / KD of variant
[2] = biological target: T2, cynomolgus monkey FcγRIIa3 …; assay: SPR (BIACORE); KD of SG1 / KD of variant
[3] = biological target: T3, human FcγRIIaH extracellular domain …; assay: SPR (BIACORE); KD of SG1 / KD of variant
[4] = biological target: T4, cynomolgus monkey FcγRIIIaS extracellular domain with C-terminal His-tag (cynomolgus monkey, UniProt A3RFZ7 21-206 (rhesus entry)); assay: SPR (BIACORE); KD of SG1 / KD of variant
T4 construct: also called cyno FcgRIIIaS; cynoFcγRIIIaS; not shown: His-tag added to the C-terminus

[5] = biological target: T4, cynomolgus monkey FcγRIIIaS …; assay: SPR (BIACORE), antibody captured, FcgR analyte

T4 sequence (A3RFZ7 21-206): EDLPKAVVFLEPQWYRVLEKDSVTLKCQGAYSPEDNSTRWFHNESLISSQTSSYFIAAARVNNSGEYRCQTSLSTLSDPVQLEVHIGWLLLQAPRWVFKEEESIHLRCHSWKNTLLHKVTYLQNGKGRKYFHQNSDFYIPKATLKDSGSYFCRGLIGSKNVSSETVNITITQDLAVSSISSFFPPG

Row | KD fold (SG1 = 1) [1] [fold] | KD fold (SG1 = 1) [2] [fold] | KD fold (SG1 = 1) [3] [fold] | KD fold (SG1 = 1) [4] [fold] | Kd [5] [µM] | Binder
1 | 1.3 | 0.5 | 0.3 | 0.21 | 1.7 | M103205H795-MY050/M103202L889-SK1 (antibody, human IgG1, kappa, name in EU numbering, Fc variant of MS1032LO06-SG1; positions in EU numbering) heavy: QVTLKESGPVLVKPTETLTLTCTVSGIDLSHDDISWVRQAPGKGLEWVGIISYAGSTYYASWAKGRLTISKDTSKNQVVLTMTNMDPVDTATYYCARGVPAYSHGGDLWGQGTLVTVSSASTKGPSVFPLAPSSKSTSGGTAALGCLVKDYFPEPVTVSWNSGALTSGVHTFPAVLQSSGLYSLSSVVTVPSSSLGTQTYICNVNHKPSNTKVDKKVEPKSCDKTHTCPPCPAPELLNGPSVFLFPPKPKDTLMISRTPEVTCVVVDVAEEDPEVKFNWYVDGVEVHNAKTKPREEQYNSTYRVVSVLTVLHQDWLNGKEYKCKVSNKALPAPIEKTISKAKGQPREPQVYTLPPSREEMTKNQVSLTCLVKGFYPSDIAVEWESNGQPENNYKTTPPVLDSDGSFFLYSKLTVDKSRWQQGNVFSCSVMHEALHNHYTQKSLSLSP light: DIVMTQSPATLSLSPGERATLSCTSSQSVYHANWLSWFQQKPGQPPKLLIYWASTLAYGVPSRFSGSGSGTDFTLTISSLQPEDAATYYCAGGYGGGRYAFGQGTKVEIKRTVAAPSVFIFPPSDEQLKSGTASVVCLLNNFYPREAKVQWKVDNALQSGNSQESVTEQDSKDSTYSLSSTLTLSKADYEKHKVYACEVTHQGLSSPVTKSFNRGEC
2 | 1.9 | – | – | 0.07 | 5.5 | M103205H795-MY147/M103202L889-SK1 (antibody, human IgG1, kappa, name in EU numbering, Fc variant of MS1032LO06-SG1; positions in EU numbering) heavy: QVTLKESGPVLVKPTETLTLTCTVSGIDLSHDDISWVRQAPGKGLEWVGIISYAGSTYYASWAKGRLTISKDTSKNQVVLTMTNMDPVDTATYYCARGVPAYSHGGDLWGQGTLVTVSSASTKGPSVFPLAPSSKSTSGGTAALGCLVKDYFPEPVTVSWNSGALTSGVHTFPAVLQSSGLYSLSSVVTVPSSSLGTQTYICNVNHKPSNTKVDKKVEPKSCDKTHTCPPCPAPELWNGPSVFLFPPKPKDTLMISRTPEVTCVVVDVSEEDPEVKFNWYVDGVEVHNAKTKPREEQYNSTYRVVSVLTVLHQDWLNGKEYKCKVSNKALPAPIEKTISKAKGQPREPQVYTLPPSREEMTKNQVSLTCLVKGFYPSDIAVEWESNGQPENNYKTTPMVLDSDGSFFLYSKLTVDKSRWQQGNVFSCSVMHEALHNHYTQKSLSLSP light: DIVMTQSPATLSLSPGERATLSCTSSQSVYHANWLSWFQQKPGQPPKLLIYWASTLAYGVPSRFSGSGSGTDFTLTISSLQPEDAATYYCAGGYGGGRYAFGQGTKVEIKRTVAAPSVFIFPPSDEQLKSGTASVVCLLNNFYPREAKVQWKVDNALQSGNSQESVTEQDSKDSTYSLSSTLTLSKADYEKHKVYACEVTHQGLSSPVTKSFNRGEC
